Laboratory results reported in US20040253689A1 (published 2004).
Numbering of substitutions follows the chain as printed. Names may count otherwise.

B1: 4m-hIGFBP-3 (R75A, L77A, L80A, L81A mutant CHO-hIGFBP-3) (other, human)
chain: HHHHHHGMASMTGGQQMGRDLYDDDDKGASSAGLGPVVRCEPCDARALAQCAPPPAVCAELVREPGCGCCLTCALSEGQPCGIYTERCGSGLRCQPSPDEAAPAQAAADGRGLCVNASAVSRLRAYLLPAPPAPGNASESEEDRSAGSVESPSVSSTHRVSDPKFHPLHSKIIIIKKGHAKDSQRYKVDYESQSTDTQNFSSESKRETEYGPCRREMEDTLNHLKFLNVLSPRGVHIPNCDKKGFYKKKQCRPSKGRKRGFCWCVDKYGQPLPGYTTKGKEDVHCYSMQSK
notes: mature; Same tagged construct as the wild-type CHO-hIGFBP-3, with four alanine substitutions; also called quadruple mutant
B2: 6m-hIGFBP-3 (I56A, Y57A, R75A, L77A, L80A, L81A mutant CHO-hIGFBP-3) (other, human)
chain: B1 chain with I83A, Y84A
notes: mature; Same tagged construct as the wild-type CHO-hIGFBP-3, with six alanine substitutions; Positions count on mature hIGFBP-3, not on the precursor; also called 6m-CHO-hIGFBP-3

How the values were obtained:
[1] = biological target: T1, ^125I-IGF-II (human, UniProt P01344 25-91, radioiodinated (^125I, 2000 Ci/mmol); labelled residue not stated); assay: solution binding of ^125I-IGF-II, charcoal separation; reference wild-type CHO-hIGFBP-3
T1 construct: also called insulin growth factor-II
Experimental: (§1) Binding of ¹²⁵I-IGF-I and ¹²⁵I-IGF-II in solution —¹²⁵I-IGF-I or ¹²⁵I-IGF-II (˜25,000 cpm) was incubated overnight at 4° C. with different concentrations of recombinant hIGFBP-3 standard (R&D Systems), or purified wild-type or mutant CHO-hIGFBP-3 in 0.4 ml phosphate-buffered saline supplemented with 0.2% fatty acid-free bovine serum albumin. Following the addition of 0.5 ml of a 5% suspension of activated charcoal (Sigma) to adsorb unbound IGF tracer, the samples were centrifuged. Radioactivity bound to hIGFBP-3 remained in the charcoal supernate and was quantified in a gamma counter (Yang et al. (1993), supra). DNA synthesis—DNA synthesis was measured in CCL64 cells by the incorporation of the thymidine analog BrdU into newly synthesized as previously described (Wu et al. (2000), supra). Quiescent cells in serum-free medium were stimulated to synthesize DNA by adding EGF. EGF was used to stimulate proliferation instead of serum to avoid introducing IGFs. In brief, the cells were plated in 96-well microtiter plates (30,000 cells/well) in 0.2 ml of DMEM containing 10% fetal calf serum, and incubated for 3 h at 37° C. […] BrdU (10 μM) was added for 2-3 h, the cells were fixed, and BrdU incorporation was quantified by an immunocolorimetric assay using monoclonal antibody to BrdU conjugated to peroxidase. […] The absorbance at 450 nm was measured in a scanning multiwell spectrophotometer.

[2] = biological target: T2, ^125I-IGF-I (human, UniProt P05019 49-118, radioiodinated (^125I, 2000 Ci/mmol); labelled residue not stated); assay: solution binding of ^125I-IGF-I, charcoal separation; reference wild-type CHO-hIGFBP-3
T2 construct: also called insulin growth factor-I
Experimental: as §1

T2 sequence (P05019 49-118 limits assumed): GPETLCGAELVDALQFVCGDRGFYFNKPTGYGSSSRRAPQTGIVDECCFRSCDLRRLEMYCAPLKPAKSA
T1 sequence (P01344 25-91 limits assumed): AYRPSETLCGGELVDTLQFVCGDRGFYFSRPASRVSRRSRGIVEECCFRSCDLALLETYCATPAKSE

Row | fold lower concentration of wild-type CHO-hIGFBP-3 that still bound more than the mutant at 200 ng/ml [1] [fold] | fold lower concentration of wild-type CHO-hIGFBP-3 that still bound more than the mutant at 200 ng/ml [2] [fold] | Binder
1 | > 80 | > 80 | B1
2 | > 80 | 80 | B2
